Changes are numbered by the printed parent chain.
Tests used:
[1] = target: T1, human ZnT8-His (human, UniProt Q8IWU4-2 1-320, limits assumed); assay: ELISA, ZnT8-His on Ni-NTA plate, HRP-conjugated secondary antibody; curve taken as human by paragraph 166
T1 construct: Over-expressed in HEK293 cells, solubilized with DDM and immobilized on Ni-NTA plates (native or unfolded with 2% SDS), or SDS-denatured on immunoblots; also called human ZnT8 with C-terminal poly-histidine tag; not shown: C-terminal poly-histidine tag
T1 sequence (looked up): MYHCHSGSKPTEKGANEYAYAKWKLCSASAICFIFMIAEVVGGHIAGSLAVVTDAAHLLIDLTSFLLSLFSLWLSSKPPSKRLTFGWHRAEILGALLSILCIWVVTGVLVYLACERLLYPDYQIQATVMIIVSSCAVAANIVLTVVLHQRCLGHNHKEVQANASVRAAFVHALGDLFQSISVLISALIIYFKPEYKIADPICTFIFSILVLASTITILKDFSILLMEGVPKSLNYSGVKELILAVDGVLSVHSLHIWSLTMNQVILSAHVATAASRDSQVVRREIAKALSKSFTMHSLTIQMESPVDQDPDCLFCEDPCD
Source text: (§1) FIG. 7A-7D. mAb binding specificities (FIG. 7A) mAb binding to ZnT8-His immobilized to Ni-NTA plate. Bound mAb20 (red) or mAb39 (magenta) was detected by an HRP-conjugated secondary antibody. Solid lines are least-squares fits of binding datapoints to a one-component binding process. Error bars are standard errors (n=8). (FIG. 7B) SDS-denatured mouse ZnT8-His (labeled as M) and human ZnT8-His (labeled as H) on immunoblots were detected by mAb20 or mAb39 as indicated. […] (FIG. 7C) Detection of endogenous human ZnT8 in EndoC-βH cells by mAb20 or […] immunoblotting. An equal amount of EndoC-βH lysate (5 μg total protein) was loaded to each lane. (FIG. 7D) Immunoblotting of HEK lysates with or with over-expression of a ZnT homolog as indicated. An approximately equal amount of total lysate protein (5 μg) was located to each lane, probed by either mAb20, mAb39, or anti-FALG antibody as indicated. FIG. 8. HTRF response to human ZnT8, mouse ZnT8 and human ZnT3.
(§2) Binding specificities. […] Of note, the epitope-masking effect of ZnT8 immobilization weakened the apparent binding affinities of both mAbs as compared to the affinities determined by flow-cytometry, and such a weakening effect was more pronounced for mAb39, probably due to a closer proximity of the mAb39 epitope to the C-terminal His-tag. Next, we compared the immunoreactivities of mAbs to denatured ZnT8.

[2] = target: T1, human ZnT8-His; assay: ELISA on ZnT8-His on Ni-NTA plate, native against unfolded with 2% SDS
Source text: FIG. 4A-4C. mAb binding stabilized ZnT8 folding (FIG. 4A) mAb binding to folded or denatured ZnT8. ZnT8-His in detergent micelles was immobilized to a Ni-NTA plate in replication w/o SDS denaturation. ELISAs against denatured (triangle) and non-denatured ZnT8 (circle) were compared for mAb20 and mAb39 as indicated. CTDA and MSA were used as a positive and negative control, respectively. Error bars are standard deviations. (FIG. 4B) mAb binding to folded ZnT8-GFP in detergent micelles. mAb20 or mAb39 was mixed with ZnT8-GFP and then the binding mixture was analyzed by size-exclusion HPLC with GFP-fluorescence detection. […] (FIG. 4C) Protection of ZnT8 unfolding. Aliquots of ZnT8 in detergent micelles were incubated with Fab20 (red), Fab39 (magenta), or Fab20+Fab39 (brown). […] After a designated time of heat denaturation as indicated, protein aggregates were removed by ultracentrifugation, and the amount of remaining ZnT8 in the supernatant was detected by mAb20 immunoblotting (upper panel). […]
Folding dependence. To compare the difference in mAb bindings to native and denatured ZnT8, we used 2% SDS to unfold immobilized ZnT8-His on a Ni-NTA plate, and then compared denatured ELISA readouts with non-denatured replicates. The native readout of mAb20 was about two-fold higher than the denatured readout (FIG. 4A), indicating a moderate selectivity for folded conformation over unfolded ZnT8. […]

[3] = target: T2, mouse ZnT8-His (mouse, UniProt Q8BGG0 1-367, limits assumed); assay: ELISA titration on ZnT8-His immobilized on Ni-NTA plate; reference is human ZnT8-His
T2 construct: Over-expressed in HEK293 cells, solubilized with DDM and immobilized on Ni-NTA plates, or SDS-denatured on immunoblots; not shown: C-terminal poly-histidine tag
T2 sequence (looked up): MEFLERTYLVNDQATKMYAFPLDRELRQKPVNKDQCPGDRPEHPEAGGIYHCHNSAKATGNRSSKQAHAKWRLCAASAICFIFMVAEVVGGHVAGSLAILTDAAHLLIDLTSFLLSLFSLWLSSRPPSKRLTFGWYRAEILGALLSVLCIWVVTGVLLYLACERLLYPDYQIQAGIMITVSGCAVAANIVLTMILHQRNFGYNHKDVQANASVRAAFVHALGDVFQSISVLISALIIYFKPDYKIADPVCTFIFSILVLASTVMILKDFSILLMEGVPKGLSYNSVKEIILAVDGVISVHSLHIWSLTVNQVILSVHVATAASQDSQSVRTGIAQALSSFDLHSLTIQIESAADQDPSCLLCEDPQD
Source text: as §1, §2

B1: mAb20 (antibody, V domains shown)
VH: QIQLVQSGPELKKPGETVKISCKASGYIFTNYPMHWVKQAPGKGLKWMGWINTYSGVPTHADDFKGRFAFSLETSANSAFLQINNLKNEDTATYFCTRSRITPTGGYAMDYWGQGTSVTVSS
VL: DVVMTQTPLSLPVSLGDQASISCRSSQSLVHSNGNTYLHWYLQKPGQSPNLLISKVSNRFSGVPERFSGSGSGTDFTLKISRVEAEDLGVYFCSQNTHVPWTFGGGTKLEIKR
notes: Mouse hybridoma mAb purified on protein A/G; In some assays it was labelled with Alexa Fluor 488 or terbium cryptate; also called monoclonal antibody mAb20; anti-ZnT8 mAb20
EC50 (read off the curve) [1]: ~3 nM | ratio of native to SDS-denatured ELISA readout [2]: ~2 fold

B2: mAb39 (antibody, V domains shown)
VH: QVQLQQPGAELVKPGASVKLSCKASGYSFTTYWMHWVKQRPGQGLEWVGDINPRNGRTNYNEKSKSKATLTVDISSSTVYMQVSSLTSEDSAVYYCAIWSGAMDYWGPGTSVTVSS
VL: B1 VL with A19P, R24K, S32N, N50K, S54Y, E65D, N96T, W101P
notes: Mouse hybridoma mAb purified on protein A/G; In some assays it was labelled with Alexa Fluor 555 or d2; also called monoclonal antibody mAb39; anti-ZnT8 mAb39
fold difference in apparent binding affinity, mouse against human ZnT8 [3]: 2 fold
